Source: publication PMC8008188

Molecular target: bone sialoprotein, full length 90 kDa, of UMR106-01 osteoblastic cultures (rat (endogenous in UMR106-01)) (UniProt P13839)
Test: co-elution on anion-exchange chromatography; EDTA extract of mineralizing UMR106-01 cultures on POROS 20 HQ in 0.05 M sodium acetate pH 5.2, 8 M urea, 0.1% CHAPS; 0 to 0.6 M NaCl gradient, then 2 M NaCl step; fractions read by dot blot and Western blot with anti-BSP and anti-6b antibodies

Sequence of UniProt P13839 (P13839 17-320): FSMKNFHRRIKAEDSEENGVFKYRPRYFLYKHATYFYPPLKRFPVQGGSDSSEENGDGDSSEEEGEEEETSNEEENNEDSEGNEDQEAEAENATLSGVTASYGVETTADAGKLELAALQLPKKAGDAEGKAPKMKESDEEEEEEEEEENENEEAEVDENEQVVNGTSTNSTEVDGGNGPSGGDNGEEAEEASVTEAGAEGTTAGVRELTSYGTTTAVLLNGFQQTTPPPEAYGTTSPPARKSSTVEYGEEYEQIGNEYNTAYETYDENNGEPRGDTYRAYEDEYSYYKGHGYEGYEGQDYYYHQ

Substance: 60 kDa Col11a1 N-terminal domain (NTD) fragment with the “6b” exon sequence (domain or fragment)
- percent of the fragment co-eluting with BSP: > 80%
